Literature values, collected in publication PMC6928821.
Like-named read-outs stand apart in the source and are kept apart here.

Key:
p300 (Homo sapiens) = p300 (Homo sapiens) (UniProt Q09472)
p300 Taz2 (Homo sapiens) [1] = target: p300 Taz2 (Homo sapiens) (UniProt Q09472)
p300 Taz2 (Homo sapiens) [2] = target: p300 Taz2 (Homo sapiens) (UniProt Q09472); remark: listed apart in the source

Chain of p300 Taz2 (Homo sapiens) (Q09472 1723-1836): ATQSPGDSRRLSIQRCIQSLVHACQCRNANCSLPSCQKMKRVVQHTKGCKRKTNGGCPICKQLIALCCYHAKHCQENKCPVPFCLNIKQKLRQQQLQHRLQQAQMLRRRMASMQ
Chain of p53 TAD1 TAD1 (P04637 13-37): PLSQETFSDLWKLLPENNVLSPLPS
Chain of p53 TAD1 1-39 (P04637 1-39): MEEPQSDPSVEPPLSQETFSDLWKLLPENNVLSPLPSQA
Chain of p300 (Homo sapiens) (Q09472 2-2414): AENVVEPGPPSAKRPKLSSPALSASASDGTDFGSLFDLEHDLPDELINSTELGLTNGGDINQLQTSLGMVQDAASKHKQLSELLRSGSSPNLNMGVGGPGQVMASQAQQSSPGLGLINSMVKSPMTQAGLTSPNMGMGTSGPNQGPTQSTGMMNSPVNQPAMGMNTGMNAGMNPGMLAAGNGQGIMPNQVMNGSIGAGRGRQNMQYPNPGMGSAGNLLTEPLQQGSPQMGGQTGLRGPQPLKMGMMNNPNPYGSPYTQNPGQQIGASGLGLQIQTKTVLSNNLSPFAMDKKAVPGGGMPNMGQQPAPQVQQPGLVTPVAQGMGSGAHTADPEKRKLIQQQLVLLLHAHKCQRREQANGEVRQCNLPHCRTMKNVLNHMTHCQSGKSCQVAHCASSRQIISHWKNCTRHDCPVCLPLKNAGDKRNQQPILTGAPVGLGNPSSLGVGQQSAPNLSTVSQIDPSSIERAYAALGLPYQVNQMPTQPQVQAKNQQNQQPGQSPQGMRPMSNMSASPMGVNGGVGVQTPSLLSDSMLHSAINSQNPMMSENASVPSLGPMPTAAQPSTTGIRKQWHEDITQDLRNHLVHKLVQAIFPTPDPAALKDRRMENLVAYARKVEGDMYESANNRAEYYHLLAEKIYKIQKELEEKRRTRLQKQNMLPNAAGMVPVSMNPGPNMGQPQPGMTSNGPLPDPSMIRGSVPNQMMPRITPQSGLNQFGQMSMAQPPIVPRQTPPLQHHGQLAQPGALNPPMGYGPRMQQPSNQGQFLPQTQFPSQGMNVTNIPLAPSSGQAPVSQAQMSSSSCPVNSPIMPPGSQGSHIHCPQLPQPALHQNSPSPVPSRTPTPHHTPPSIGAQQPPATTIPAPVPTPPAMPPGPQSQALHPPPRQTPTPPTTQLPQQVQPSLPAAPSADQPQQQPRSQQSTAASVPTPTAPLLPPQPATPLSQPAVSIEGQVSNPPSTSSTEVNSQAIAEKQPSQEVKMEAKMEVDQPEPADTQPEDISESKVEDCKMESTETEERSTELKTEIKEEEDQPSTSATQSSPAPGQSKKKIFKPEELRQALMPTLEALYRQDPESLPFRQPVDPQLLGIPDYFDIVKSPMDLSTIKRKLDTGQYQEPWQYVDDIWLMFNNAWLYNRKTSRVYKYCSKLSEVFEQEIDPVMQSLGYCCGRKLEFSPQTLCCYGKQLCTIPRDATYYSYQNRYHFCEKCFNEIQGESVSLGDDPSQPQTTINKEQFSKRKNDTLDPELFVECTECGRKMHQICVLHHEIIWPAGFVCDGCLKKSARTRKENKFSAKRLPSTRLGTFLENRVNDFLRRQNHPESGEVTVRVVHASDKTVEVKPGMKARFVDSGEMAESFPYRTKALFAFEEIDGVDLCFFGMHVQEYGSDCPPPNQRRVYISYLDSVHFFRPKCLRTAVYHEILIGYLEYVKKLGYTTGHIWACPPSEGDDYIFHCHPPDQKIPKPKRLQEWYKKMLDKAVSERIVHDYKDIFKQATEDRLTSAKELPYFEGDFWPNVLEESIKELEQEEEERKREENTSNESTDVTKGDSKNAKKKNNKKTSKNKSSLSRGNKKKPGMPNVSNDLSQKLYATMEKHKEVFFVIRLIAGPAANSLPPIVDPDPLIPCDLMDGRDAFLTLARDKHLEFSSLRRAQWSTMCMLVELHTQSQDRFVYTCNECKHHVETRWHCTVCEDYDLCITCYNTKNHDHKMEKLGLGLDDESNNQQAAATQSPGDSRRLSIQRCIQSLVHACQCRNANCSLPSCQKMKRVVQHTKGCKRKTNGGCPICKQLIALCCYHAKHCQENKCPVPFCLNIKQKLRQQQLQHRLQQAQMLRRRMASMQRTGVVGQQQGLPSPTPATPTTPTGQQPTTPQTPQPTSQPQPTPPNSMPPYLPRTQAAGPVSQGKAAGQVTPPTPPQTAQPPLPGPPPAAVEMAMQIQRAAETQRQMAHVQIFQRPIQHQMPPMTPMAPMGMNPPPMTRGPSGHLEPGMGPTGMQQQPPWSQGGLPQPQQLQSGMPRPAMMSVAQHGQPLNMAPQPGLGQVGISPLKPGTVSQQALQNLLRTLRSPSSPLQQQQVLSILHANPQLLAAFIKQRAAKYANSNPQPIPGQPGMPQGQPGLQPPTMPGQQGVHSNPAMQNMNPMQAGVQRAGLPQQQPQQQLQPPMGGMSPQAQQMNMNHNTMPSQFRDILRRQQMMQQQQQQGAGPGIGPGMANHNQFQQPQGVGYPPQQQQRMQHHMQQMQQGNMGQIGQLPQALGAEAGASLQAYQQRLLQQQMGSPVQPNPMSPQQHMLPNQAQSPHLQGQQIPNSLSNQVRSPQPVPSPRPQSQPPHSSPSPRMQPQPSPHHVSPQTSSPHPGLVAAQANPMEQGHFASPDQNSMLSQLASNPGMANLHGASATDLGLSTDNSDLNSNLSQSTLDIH

p53 TAD1 1-39 (from UniProt P04637)
Kd (p300 (Homo sapiens)): 3000 nM

p53 TAD1 TAD1 (from UniProt P04637)
Kd (p300 Taz2 (Homo sapiens) [1]): 200 nM | Kd (p300 Taz2 (Homo sapiens) [2]): 3000 nM
